Data: patent US20260125457A1 (Janssen / Centocor, published 2026)
Changes are numbered by the printed parent chain.

T1: 22 amino acid CALRmut-specific peptide (acetylation of the terminal amino-group; C-terminal -OH group)
T1 construct: also called 22aa CALRmut peptide; CALRmut target peptide
T1 peptide: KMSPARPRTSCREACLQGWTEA

B1: CALRB118 (MP1016C Fab x CD3W245-HL-scFv, high affinity) (bispecific antibody, part only; not given: CD3 scFv arm and IgG1 constant regions, V domains shown, not shown: another chain or arm of the molecule; a dimerising Fc or GST; small tags and cut ends)
VL: DPVLTQTESPVSAAVGGTVTINCQASQSVYDDNNLAWYQQKPGQPPKRLIYPASTLASGVSSRFSGSGSGSQFTLTISDVQSDDAATYYCQGEFSCTSADCVAFGGGTEVVVK
VH: QEQLKESGGRLVTPGTPLTLTCTASGFSLSNYYMSWVRQAPGKGLEWIGGISSRAGTWYASWAKGRFTISGTSSTTMDLKITSPTTEDTATYFCARGLKIWGPGTLVTVSS
B2: CALRB119 (MP1016 Fab x CD3W245-HL-scFv, high affinity) (bispecific antibody, part only; not given: anti-CD3 scFv arm, constant regions, V domains shown, not shown: another chain or arm of the molecule; a dimerising Fc or GST; small tags and cut ends)
VL: B1 VL
VH: QEQLKESGGRLVTPGTPLTLTCTASGFSLSNYYMSWVRQAPGKGLEWIGGISSRAGTWYASWAKGRFTISGTSTTMDLKITSPTTEDTATYFCARGLKIWGPGTLVTVSS
B3: CALRB78 (MP1016C Fab x CD3W245-LH-scFv, medium affinity) (bispecific antibody, part only; not given: anti-CD3 scFv arm, constant regions, V domains shown, not shown: another chain or arm of the molecule; a dimerising Fc or GST; small tags and cut ends)
VL: B1 VL
VH: B1 VH
B4: CALRB79 (MP1016 Fab x CD3W245-LH-scFv, medium affinity) (bispecific antibody, part only; not given: anti-CD3 scFv arm, constant regions, V domains shown, not shown: another chain or arm of the molecule; a dimerising Fc or GST; small tags and cut ends)
VL: B1 VL
VH: B2 VH
B5: Clone 7 (Fab, V domains shown)
VH: QQLEESGGRLVAPGTPLRLTCTVSGIDLSNNAVSWVRQAPGKGLEYIGVIGNTGTTYYANWAKGRFTISKTSSTTVDLKMTSLTTDDTATYFCVRGPPSYSNSVRNIWGPGTLVTVSS
VL: DPMLTQTPSSVSAAVGGTVTIGCQSSQSVYDNNWLSWYQQKPGQPPNRLIYDASKLASGVPSRFSGSGSGTQFTLTISGVKCDDAATYYCAGGYTGNVYSFGGGTMVEIK
notes: Rabbit/human chimeric Fab (human CH1, CK) on phage; also soluble Fab-AP
B6: CALRB114 (MP1001 Fab x CD3W245-HL-scFv, high affinity) (bispecific antibody, part only; not given: CD3 scFv arm and IgG1 constant regions, V domains shown, not shown: another chain or arm of the molecule; a dimerising Fc or GST; small tags and cut ends)
VH: QEQLKESGGRLVTPGTPLTLTCAVSGFSLDIYGMSWVRQAPGKGLEWIGIIYIEGITYYANWAKGRFTISKTSSTTLELKMTSLTTEDTAMYFCVAGVGRIWGPGTLVTVSS
VL: YVMMTQTPSSVSAAVGGTVTINCQASQSLYNNNNLAWFQQKPGQPPKRLIYPASTLASGVSSRFKGSGSGTQFTLTISDVQSDDAATYFCLGEFSCSSADCYAFGGGTEVVVK
B7: CALRB74 (MP1001 Fab x CD3W245-LH-scFv, medium affinity) (bispecific antibody, part only; not given: CD3 scFv arm and IgG1 constant regions, V domains shown, not shown: another chain or arm of the molecule; a dimerising Fc or GST; small tags and cut ends)
VL: B6 VL
VH: B6 VH
B8: CALRB120 (MP1018C Fab x CD3W245-HL-scFv, high affinity) (bispecific antibody, part only; not given: CD3 scFv arm and IgG1 constant regions, V domains shown, not shown: another chain or arm of the molecule; a dimerising Fc or GST; small tags and cut ends)
VL: DVVMTQTPSSVSAAVGGTVTINCQASQSLYNNKNLAWYQQKPGQPPKLLIYYASALASGVSSRFKGSGSGTQFTLTISGVQSDDAATYYCQGEFNCNSADCNSFGGGTEVVVK
VH: QSVEESGGRLVTPGTPLTITCTVSGFSLSSYAMSWVRQAPGKGLEWIGVIDSGGTTYYATWAKSRFTISKTSSTKVALKITSPTTEDTATYFCARESYAGYDGYGHPIPYGMDPWGPGTLVTVSS
B9: CALRB80 (MP1018C Fab x CD3W245-LH-scFv, medium affinity) (bispecific antibody, part only; not given: CD3 scFv arm and IgG1 constant regions, V domains shown, not shown: another chain or arm of the molecule; a dimerising Fc or GST; small tags and cut ends)
VL: B8 VL
VH: B8 VH
B10: CALRB81 (MP1018 Fab x CD3W245-LH-scFv, medium affinity) (bispecific antibody, part only; not given: anti-CD3 scFv arm, constant regions, V domains shown, not shown: another chain or arm of the molecule; a dimerising Fc or GST; small tags and cut ends)
VL: B8 VL
VH: QSVEESGGRLVTPGTPLTITCTVSGFSLSSYAMSWVRQAPGKGLEWIGVIDSGGTTYYATWAKSRFTISKTTKVALKITSPTTEDTATYFCARESYAGYDGYGHPIPYGMDPWGPGTLVTVSS
B11: CALRB75 (MP1004 Fab x CD3W245-LH-scFv, medium affinity) (bispecific antibody, part only; not given: CD3 scFv arm and IgG1 constant regions, V domains shown, not shown: another chain or arm of the molecule; a dimerising Fc or GST; small tags and cut ends)
VL: DPMLTQTPSSVSAAVGGTVTINCQSSQSVYNNNWLSWLQQKPGQPPNRLIYDASKLESGVPSRFSGSGSGTQFTLTISGVQSDDAATYYCAGGFTGNVYTFGGGTEVVVK
VH: QEQLEESGGRLVTPGTPLTLTCKVSGIDLSNNAISWVRQAPGKGLEYIGVIGNTGDTYYASWAKGRFTISKTSSTTVDLKMTSLTTEDTATYFCVRGPPSYSNSVKNIWGPGTLVTISS
B12: CALRB77 (MP1010 Fab x CD3W245-LH-scFv, medium affinity) (bispecific antibody, part only; not given: anti-CD3 scFv arm, constant regions, V domains shown, not shown: another chain or arm of the molecule; a dimerising Fc or GST; small tags and cut ends)
VL: B11 VL with N22G, N31D, N32K, L38Y, N47S, A85V, T100A
VH: B5 VH with Q2S, L3V, A12T, R18T, V33I, T55D, N60S, D86E, R105K, V116I
B13: CALRB115 (MP1004 Fab x CD3W245-HL-scFv, high affinity) (bispecific antibody, part only; not given: anti-CD3 scFv arm, constant regions, V domains shown, not shown: another chain or arm of the molecule; a dimerising Fc or GST; small tags and cut ends)
VH: B11 VH
VL: B11 VL
B14: Clone 11 (Fab, V domains shown)
VH: B11 VH with E5K, T13A, T19R, K23T, I34V, D56T, S61N, E87D, I117V
VL: B11 VL with S10P, S25A, S36T, L38Y, E57A, S69F, S82C, G92A, F94W, T100S
notes: as for B5
B15: CALRB76 (MP1007 Fab x CD3W245-LH-scFv, medium affinity) (bispecific antibody, part only; not given: CD3 scFv arm and IgG1 constant regions, V domains shown, not shown: another chain or arm of the molecule; a dimerising Fc or GST; small tags and cut ends)
VL: B5 VL with C82S
VH: B5 VH
B16: Clone 5 (Fab, V domains shown)
VH: B11 VH with E5K, T13A, T19R, K23T, I34V, D56T, S73T, E87D, I117V
VL: B11 VL with M3V, N22G, N31D, N32K, L38Y, N47S, S82C, T100G
notes: Rabbit/human chimeric Fab on phage; also Fab-AP
B17: CALRB116 (MP1007 Fab x CD3W245-HL-scFv, high affinity) (bispecific antibody, part only; not given: anti-CD3 scFv arm, constant regions, V domains shown, not shown: another chain or arm of the molecule; a dimerising Fc or GST; small tags and cut ends)
VH: B5 VH
VL: B5 VL with C82S
B18: Clone 15 (Fab, V domains shown)
VH: B5 VH with A12T, R18T, V33I, N60S, T85A, D86S, R105K, V116I
VL: B11 VL with P2V, M3V, L4M, S82C
notes: as for B5
B19: Clone 22 (Fab, V domains shown)
VH: QQLEESGGRLVTPGTPLTLTCTVSGIDLSNNAMSWVRQAPGKGLEYIGVIGNTGTTYYASWAKGRFTISKTSSTTVDLKMTSLTTEDTATYFCVRGPPSYSNSVKNIWGPGTLVTIS
VL: B11 VL with M3V, S82C
notes: as for B5
B20: CALRB117 (MP1010 Fab x CD3W245-HL-scFv, high affinity) (bispecific antibody, part only; not given: anti-CD3 scFv arm, constant regions, V domains shown, not shown: another chain or arm of the molecule; a dimerising Fc or GST; small tags and cut ends)
VH: B5 VH with Q2S, L3V, A12T, R18T, V33I, T55D, N60S, D86E, R105K, V116I
VL: B11 VL with N22G, N31D, N32K, L38Y, N47S, A85V, T100A
B21: Clone 21 (Fab, V domains shown)
VH: B11 VH with E5K, T13A, T19R, K23T, I34V, D56T, S61N, E87D
VL: B5 VL with P2V, M3V, L4M, N32K, N47S, A57E, K81Q, Y94F, S100A
notes: as for B5
B22: Clone 3 (Fab, V domains shown)
VH: B11 VH with E5K, T13A, T19R, K23R, I34V, D56S, S61N, T86A, E87D, I117V
VL: B11 VL with N22G, N31D, N32K, L38Y, N47S, S82C, T100A
notes: as for B5

Key:
[1] = molecular target: CALRdel52 (mutant calreticulin, 52 base pair deletion, Type 1) expressed with MPL on engineered cancer cells (UniProt P27797); assay: cell-based or functional assay
CALRdel52 (mutant calreticulin, 52 base pair deletion, Type 1) expressed with MPL on engineered cancer cells, sequence (P27797 other isoform, or with tags, fused parts or gaps mutant limits assumed): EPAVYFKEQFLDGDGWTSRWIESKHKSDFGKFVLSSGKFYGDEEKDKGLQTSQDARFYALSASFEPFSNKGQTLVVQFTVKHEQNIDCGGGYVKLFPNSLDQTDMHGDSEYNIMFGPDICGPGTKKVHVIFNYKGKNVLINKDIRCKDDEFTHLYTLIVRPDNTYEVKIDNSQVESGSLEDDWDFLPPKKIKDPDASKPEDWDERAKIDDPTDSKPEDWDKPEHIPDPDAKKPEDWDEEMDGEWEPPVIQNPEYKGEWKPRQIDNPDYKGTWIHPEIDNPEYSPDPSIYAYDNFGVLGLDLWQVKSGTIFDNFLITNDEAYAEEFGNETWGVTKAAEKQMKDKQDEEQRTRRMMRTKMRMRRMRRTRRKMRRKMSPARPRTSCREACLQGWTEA

[2] = molecular target: CALRins5 (mutant calreticulin, 5 base pair insertion, Type 2) expressed with MPL on engineered cancer cells (UniProt P27797); assay: cell-based or functional assay
CALRins5 (mutant calreticulin, 5 base pair insertion, Type 2) expressed with MPL on engineered cancer cells, sequence (P27797 other isoform, or with tags, fused parts or gaps mutant limits assumed): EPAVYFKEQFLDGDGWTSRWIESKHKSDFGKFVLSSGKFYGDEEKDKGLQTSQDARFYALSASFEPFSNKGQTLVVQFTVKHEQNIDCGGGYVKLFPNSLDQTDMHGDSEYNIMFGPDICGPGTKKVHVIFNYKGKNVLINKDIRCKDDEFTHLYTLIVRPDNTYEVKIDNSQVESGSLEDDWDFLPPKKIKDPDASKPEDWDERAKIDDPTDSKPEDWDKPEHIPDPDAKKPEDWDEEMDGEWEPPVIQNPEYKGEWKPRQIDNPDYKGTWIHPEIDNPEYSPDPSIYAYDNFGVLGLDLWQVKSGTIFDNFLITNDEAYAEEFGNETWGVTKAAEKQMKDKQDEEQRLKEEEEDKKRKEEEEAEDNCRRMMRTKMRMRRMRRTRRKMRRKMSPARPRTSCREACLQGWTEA

[3] = molecular target: T1, 22 amino acid CALRmut-specific peptide; assay: phage ELISA; QC ELISA of soluble Fab-AP

| Binder | Cytotoxicity EC50, K562 MPL CALRdel52 cells [1] | Cytotoxicity EC50, OCI-M2 MPL CALRdel52 cells [1] | Cytotoxicity EC50, K562 MPL CALRins5 cells [2] | Cytotoxicity EC50, OCI-M2 MPL CALRins5 cells [2] | binding result [3] |
| --- | --- | --- | --- | --- | --- |
| B1 | 0.0099 µg/mL | 0.505 µg/mL | 0.0157 µg/mL | 0.0136 µg/mL | – |
| B2 | 0.0064 µg/mL | 0.504 µg/mL | 0.0104 µg/mL | 0.0225 µg/mL | – |
| B3 | 0.0393 µg/mL | 0.0581 µg/mL | 0.0648 µg/mL | 0.0792 µg/mL | – |
| B4 | 0.0444 µg/mL | 0.112 µg/mL | 0.0416 µg/mL | 0.0911 µg/mL | – |
| B5 | – | – | – | – | binds |
| B6 | 0.0112 µg/mL | 0.0168 µg/mL | 0.0163 µg/mL | 0.0235 µg/mL | – |
| B7 | 0.0521 µg/mL | 0.0253 µg/mL | 0.0304 µg/mL | 0.0322 µg/mL | – |
| B8 | 0.0077 µg/mL | 0.0091 µg/mL | 0.0119 µg/mL | 0.0145 µg/mL | – |
| B9 | 0.0401 µg/mL | 0.0205 µg/mL | 0.0434 µg/mL | 0.0212 µg/mL | – |
| B10 | 0.0457 µg/mL | 0.0196 µg/mL | 0.0509 µg/mL | 0.0171 µg/mL | – |
| B11 | 0.193 µg/mL | 0.115 µg/mL | 0.116 µg/mL | 0.129 µg/mL | – |
| B12 | 0.195 µg/mL | 0.183 µg/mL | 0.414 µg/mL | 0.189 µg/mL | – |
| B13 | 0.0348 µg/mL | 0.0508 µg/mL | 0.0541 µg/mL | 0.0431 µg/mL | – |
| B14 | – | – | – | – | binds |
| B15 | 0.0633 µg/mL | 0.0897 µg/mL | 0.107 µg/mL | 0.189 µg/mL | – |
| B16 | – | – | – | – | binds |
| B17 | 0.0243 µg/mL | 0.0802 µg/mL | 0.0953 µg/mL | 0.0392 µg/mL | – |
| B18 | – | – | – | – | binds |
| B19 | – | – | – | – | binds |
| B20 | 0.0403 µg/mL | 0.0598 µg/mL | 0.0741 µg/mL | 0.0481 µg/mL | – |
| B21 | – | – | – | – | binds |
| B22 | – | – | – | – | binds |
